In patent US20030059429A1 (published 2003):
Residue numbers refer to the chain shown, from its start. Values belong to the binder of their own block, whether it stands above or below them.

What was measured:
human IL-1α = target: T1, human IL-1α (human, UniProt P01583 113-271); assay: ELISA, supernatants of the cloned lines
T1 sequence (looked up): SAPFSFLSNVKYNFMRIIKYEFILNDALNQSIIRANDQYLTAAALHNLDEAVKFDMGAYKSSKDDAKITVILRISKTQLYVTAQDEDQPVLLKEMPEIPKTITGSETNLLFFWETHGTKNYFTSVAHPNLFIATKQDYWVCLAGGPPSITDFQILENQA

human M-CSF = target: T2, human M-CSF (human, UniProt P09603 33-190, limits assumed); assay: ELISA, supernatants of the cloned lines
T2 sequence (looked up): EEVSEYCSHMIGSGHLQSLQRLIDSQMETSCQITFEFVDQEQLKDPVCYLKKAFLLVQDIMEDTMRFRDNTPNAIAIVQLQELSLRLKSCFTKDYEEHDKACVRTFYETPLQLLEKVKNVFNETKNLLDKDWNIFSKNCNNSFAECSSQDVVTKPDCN

human IL-8 = human IL-8 (human, UniProt P10145 28-99, limits assumed); assay: ELISA, supernatants of the cloned lines
human IL-1β = human IL-1β (human, UniProt P01584 117-269); assay: ELISA, supernatants of the cloned lines
human TGFα = human TGFα (human, UniProt P01135 40-89); assay: ELISA, supernatants of the cloned lines
human IL-4 = target: T3, human IL-4 (human, UniProt P05112 25-153); assay: ELISA, supernatants of the cloned lines
T3 sequence (looked up): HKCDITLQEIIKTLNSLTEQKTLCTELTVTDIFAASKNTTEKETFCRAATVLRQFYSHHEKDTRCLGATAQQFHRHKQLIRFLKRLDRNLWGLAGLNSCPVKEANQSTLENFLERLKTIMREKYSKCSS

Recombinant human IL-5 [1] = target: T4, Recombinant human IL-5 (human, UniProt P05113 20-134, 125I label (Bolton-Hunter reagent) in the receptor binding inhibition assay and the colony lifts; residues not stated); assay: cell-based or functional assay
Recombinant human IL-5 [2] = target: T4, Recombinant human IL-5; assay: inhibition of 125I-IL-5 binding to IL-5R(α chain) from Drosophila membranes
Recombinant human IL-5 [3] = target: T4, Recombinant human IL-5; assay: optical biosensor (BIAcore), immobilized hIL-5, 25° C.
Recombinant human IL-5 [4] = target: T4, Recombinant human IL-5; assay: cell-based or functional assay; remark: listed apart in the source
Recombinant human IL-5 [5] = target: T4, Recombinant human IL-5; assay: colony lift assay with iodinated IL-5, chain shuffled library

- binding result (human IL-1α): no binding
- binding result (human M-CSF): no binding
- binding result (human IL-8): no binding
- binding result (human IL-1β): no binding
- binding result (human TGFα): no binding
- binding result (human IL-4): no binding
- inhibition of proliferation of murine B13 cells (Recombinant human IL-5 [1]): > 70%
- IC50 (Recombinant human IL-5 [2]): 1 nM
- Kd (Recombinant human IL-5 [3]): 0.022 nM
- 100% Inhibition (pM), B13 cell proliferation (Recombinant human IL-5 [4]): 200 pM
- Proliferation IC50 (pM), B13 cells (Recombinant human IL-5 [4]): 70 pM
B1: murine monoclonal antibody 2B6 (antibody, IgG1, V domains shown)
VH: QVQLKESGPGLVAPSQSLSITCTVSGFSLTSYSVHWVRQPPGKGLEWLGVIWASGGTDYNSALMSRLSISKDNSKSQVFLKLNSLQTDDTAMYYCARDPPSSLLRLDYWGQGTTLTVSS
VL: DIVMTQSPSSLSVSAGEKVTMSCKSSQSLLNSGNQKNYLAWYQQKPGQPPKLLIYGASTRESGVPDRFTGSGSGTDFTLSISSVQAEDLAVYYCQNVHSFPFTFGSGTELEIK
notes: also called mAb 2B6; murine 2B6

- binding result (Recombinant human IL-5 [5]): binds
B2: Fab 15 from the chain-shuffled library (2B6 Fd with a library light chain) (Fab, V domains shown)
VH: B1 VH
VL: B1 VL with D1E, I2L, S80T, V97D, H98Y, F100Y, E109K
notes: not shown: constant part of the murine 2B6 Fd (CH1) and any tag from pMKFabGene3H

- binding result (Recombinant human IL-5 [5]): binds
B3: Fab 2 from the chain-shuffled library (2B6 Fd with a library light chain) (Fab, V domains shown)
VH: B1 VH
VL: B1 VL with D1E, I2L, S80T, V97D, F100Y, E109K
notes: as for B2

- binding result (human IL-1α): no binding
- binding result (human M-CSF): no binding
- binding result (human IL-8): no binding
- binding result (human IL-1β): no binding
- binding result (human TGFα): no binding
- binding result (human IL-4): no binding
- inhibition of proliferation of murine B13 cells (Recombinant human IL-5 [1]): > 70%
- IC50 (Recombinant human IL-5 [2]): 1 nM
- Kd (Recombinant human IL-5 [3]): 0.02 nM
- 100% Inhibition (pM), B13 cell proliferation (Recombinant human IL-5 [4]): 600 pM
- Proliferation IC50 (pM), B13 cells (Recombinant human IL-5 [4]): 90 pM
B4: murine monoclonal antibody 2E3 (antibody, IgG2a, V domains shown)
VH: PGLVAPSQSLSITCTVSGFSLTSYSVHWVRQPPGKGLEWLGVIWASGGTDYNSALMSRLSISKDNSKSQVFLKLNSLQTDDAAMYYCARDPPFSLLRLDFWGQGTTLTVSS
VL: SSLSVSAGEKVTMSCKSSQSLLNSGNQKNYLAWYQQKPGQPPKLLIYGASTRESGVPDRFTGSGSGTDFTLTISSVQAEDLAVYYCQNDHSFPFTFGSGTELEIK
notes: also called mAb 2E3; hybridoma SK119-2E3.39.40.2

- binding result (human IL-1α): no binding
- binding result (human M-CSF): no binding
- binding result (human IL-8): no binding
- binding result (human IL-1β): no binding
- binding result (human TGFα): no binding
- binding result (human IL-4): no binding
- inhibition of proliferation of murine B13 cells (Recombinant human IL-5 [1]): > 70%
- IC50 (Recombinant human IL-5 [2]): 1 nM
- Kd (Recombinant human IL-5 [3]): 0.013 nM
- 100% Inhibition (pM), B13 cell proliferation (Recombinant human IL-5 [4]): 340 pM
- Proliferation IC50 (pM), B13 cells (Recombinant human IL-5 [4]): 150 pM
B5: murine monoclonal antibody 2F2 (antibody, V domains shown)
VH: B4 VH with Q78R, A82T, F93S, F100Y
VL: B4 VL
notes: also called mAb 2F2; hybridoma SK119-2F2.37.80.12
